Measured values published in article PMC12350170, “Structural basis for the synergistic assembly of the snRNA export complex” (Nature Structural & Molecular Biology, 2025).
Positions count from the first letter of the chain named. Names and notes keep the numbering of the source.

What was measured:
Conditions in all cases: both partners purified
[1] = target: Human Ran Q69L bound to GTP (human, UniProt P62826 1-216, Q69L); test: SEC; Superdex 200 Increase 3.2/300; 180 pmol CBC and 360 pmol PHAX construct, CRM1 and RanGTP mixed with 100 μM capped 14-nt RNA (or U1 snRNA), 1 mM Mg2+, 1 mM KCl, 100 μM GTP, 30 min on ice; fractions on SDS-PAGE
Human CRM1 = target: T1, Human CRM1 (human, UniProt O14980 1-1071); test: as above
T1 construct: CRM1 (XPO1), human; also called XPO1; exportin CRM1; source: E. coli Tg1, pQE60, purified (Ni2+-chelating Sepharose, heparin, Superdex 200)

[2] = target: T2, Human nuclear cap-binding complex (CBC): CBP80ΔNLS with CBP20 (human, UniProt Q09161 20-790; P52298 1-156); test: as above
T2 construct: CBP80 (NCBP1), human, CBP80ΔNLS lacking the N-terminal 19 residues; CBP20 (NCBP2), human; also called CBP80–CBP20; source: CBP80ΔNLS in High Five insect cells, CBP20 in E. coli BL21Star (DE3); pellets lysed together, purified (Ni2+-chelating Sepharose, TEV, heparin, Superdex 200)
T2 sequence 1: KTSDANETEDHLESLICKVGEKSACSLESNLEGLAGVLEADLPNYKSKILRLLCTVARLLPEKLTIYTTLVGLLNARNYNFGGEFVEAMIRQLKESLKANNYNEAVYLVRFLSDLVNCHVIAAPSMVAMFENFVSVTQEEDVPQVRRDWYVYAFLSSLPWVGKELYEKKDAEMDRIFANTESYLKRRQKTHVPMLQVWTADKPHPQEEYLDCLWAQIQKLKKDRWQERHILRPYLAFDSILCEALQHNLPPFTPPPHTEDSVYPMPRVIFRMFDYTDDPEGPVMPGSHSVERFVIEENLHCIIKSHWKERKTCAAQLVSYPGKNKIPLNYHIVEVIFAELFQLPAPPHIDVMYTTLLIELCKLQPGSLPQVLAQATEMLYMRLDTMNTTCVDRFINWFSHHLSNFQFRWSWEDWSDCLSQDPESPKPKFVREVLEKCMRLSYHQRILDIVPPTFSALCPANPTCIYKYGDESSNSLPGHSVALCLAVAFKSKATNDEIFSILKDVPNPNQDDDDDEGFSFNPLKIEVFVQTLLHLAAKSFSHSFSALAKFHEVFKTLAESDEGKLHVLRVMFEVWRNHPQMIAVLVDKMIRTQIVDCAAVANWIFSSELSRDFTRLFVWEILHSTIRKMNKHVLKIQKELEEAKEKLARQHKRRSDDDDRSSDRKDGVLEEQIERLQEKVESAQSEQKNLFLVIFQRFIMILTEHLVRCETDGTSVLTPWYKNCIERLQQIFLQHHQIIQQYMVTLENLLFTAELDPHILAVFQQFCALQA
T2 sequence 2: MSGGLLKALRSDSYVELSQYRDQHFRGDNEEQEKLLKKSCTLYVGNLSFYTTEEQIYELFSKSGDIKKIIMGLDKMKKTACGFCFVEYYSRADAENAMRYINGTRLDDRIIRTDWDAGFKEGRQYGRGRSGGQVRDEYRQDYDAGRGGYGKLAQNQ

[3] = target: T2, Human nuclear cap-binding complex …; test: ITC; 25 °C, PEAQ-ITC; 0.2–0.25 mM PHAX 103–196 or mutant injected into 20 µM CBC in the presence or absence of 0.1 mM m7GTP or m7GpppG; 20 mM Tris pH 8.0, 100 mM NaCl, 2% glycerol; one-site model
[4] = target: T3, CBP80ΔNLS (subunit of the human CBC) (human, UniProt Q09161 20-790); test: cryo-EM structure; snRNA export complex of CBC, CK2-phosphorylated PHAX, CRM1, Ran(Q69L)GTP and 14-nt capped RNA, purified on Superdex 200 Increase; Titan Krios 300 kV
T3 construct: CBP80 (NCBP1), human, lacking the N-terminal 19 residues; Stood in the assay as part of CBC; made a molecule of its own for the contacts seen in the structure; also called NCBP1; source: High Five insect cells; purified together with CBP20 as CBC
T3 sequence (looked up): T2 sequence 1

[5] = target: T4, Human full-length PHAX, phosphorylated in vitro by CK2 (human, UniProt Q9H814 1-394, phosphorylated by CK2 in vitro: between 3 and 5 phosphorylated sites, up to four within ST2 (residues 64–76); the positions are not given); test: as above
T4 construct: PHAX (Phosphorylated Adaptor for RNA Export), human, 394 amino acid residues; also called P-PHAX; phosphorylated PHAX; source: E. coli BL21Star (DE3), pETM11, purified (Ni2+-chelating Sepharose, heparin, Superdex 200); then treated with CK2 and ATP
T4 sequence (Q9H814 whole entry, the tested form may be a part): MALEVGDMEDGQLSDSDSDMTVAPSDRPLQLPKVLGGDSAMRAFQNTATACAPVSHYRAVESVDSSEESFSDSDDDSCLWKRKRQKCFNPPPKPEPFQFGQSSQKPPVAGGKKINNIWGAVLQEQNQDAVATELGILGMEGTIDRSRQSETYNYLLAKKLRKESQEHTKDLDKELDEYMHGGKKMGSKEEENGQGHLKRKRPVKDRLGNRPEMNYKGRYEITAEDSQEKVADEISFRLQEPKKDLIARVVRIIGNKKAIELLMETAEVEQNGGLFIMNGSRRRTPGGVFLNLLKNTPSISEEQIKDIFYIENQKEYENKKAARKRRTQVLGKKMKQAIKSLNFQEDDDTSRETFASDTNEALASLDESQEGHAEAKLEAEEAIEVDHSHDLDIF

T1 sequence (O14980 whole entry): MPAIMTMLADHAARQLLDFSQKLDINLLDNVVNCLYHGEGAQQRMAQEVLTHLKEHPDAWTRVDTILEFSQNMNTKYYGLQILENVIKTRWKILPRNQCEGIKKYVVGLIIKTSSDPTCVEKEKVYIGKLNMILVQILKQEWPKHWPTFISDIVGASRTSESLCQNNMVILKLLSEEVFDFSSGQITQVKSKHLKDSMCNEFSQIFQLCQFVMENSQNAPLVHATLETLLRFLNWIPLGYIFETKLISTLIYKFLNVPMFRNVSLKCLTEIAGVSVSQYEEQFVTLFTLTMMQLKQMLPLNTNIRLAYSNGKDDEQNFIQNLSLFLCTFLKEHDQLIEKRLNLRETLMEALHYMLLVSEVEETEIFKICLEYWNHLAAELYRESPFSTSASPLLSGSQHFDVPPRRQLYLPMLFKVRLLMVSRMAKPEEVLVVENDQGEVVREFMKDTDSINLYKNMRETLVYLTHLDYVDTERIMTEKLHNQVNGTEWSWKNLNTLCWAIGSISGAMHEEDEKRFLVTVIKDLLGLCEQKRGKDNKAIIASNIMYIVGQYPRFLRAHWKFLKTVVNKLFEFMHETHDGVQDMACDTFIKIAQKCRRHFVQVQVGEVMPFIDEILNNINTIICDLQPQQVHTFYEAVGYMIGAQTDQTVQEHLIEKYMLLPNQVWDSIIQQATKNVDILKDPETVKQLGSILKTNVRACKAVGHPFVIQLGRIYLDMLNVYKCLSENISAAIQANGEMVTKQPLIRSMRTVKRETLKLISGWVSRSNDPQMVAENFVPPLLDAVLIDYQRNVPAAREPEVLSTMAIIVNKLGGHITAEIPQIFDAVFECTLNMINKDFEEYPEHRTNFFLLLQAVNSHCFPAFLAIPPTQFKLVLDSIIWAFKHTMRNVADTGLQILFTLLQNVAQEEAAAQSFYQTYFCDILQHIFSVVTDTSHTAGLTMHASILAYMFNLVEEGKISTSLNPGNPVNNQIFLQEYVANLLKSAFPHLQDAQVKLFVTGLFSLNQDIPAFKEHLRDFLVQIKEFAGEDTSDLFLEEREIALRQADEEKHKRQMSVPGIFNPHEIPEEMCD

B1: MBP-PHAX103–196 (wild type) (domain or fragment, human, UniProt Q9H814 103-196, looked up)
chain: SQKPPVAGGKKINNIWGAVLQEQNQDAVATELGILGMEGTIDRSRQSETYNYLLAKKLRKESQEHTKDLDKELDEYMHGGKKMGSKEEENGQGH
notes: source: E. coli BL21Star (DE3), pETM41, purified (Ni2+-chelating Sepharose, Superdex 200); not shown: MBP, N-terminal, kept
binding result [1]: binds | binding result (Human CRM1): binds | binding result [2]: binds

B2: MBP-PHAX103–196 R147E, Y152E, Y154E (domain or fragment, human, UniProt Q9H814 103-196, looked up)
chain: B1 chain with R45E, Y50E, Y52E
notes: as for B1
binding result [3]: binds

B3: MBP-PHAX103–196 Y154A (domain or fragment, human, UniProt Q9H814 103-196, looked up)
chain: B1 chain with Y52A
notes: as for B1
binding result [2]: binds

B4: CBP20 (subunit of the human CBC) (natural protein)
chain: T2 sequence 2
notes: CBP20 (NCBP2), human; Stood in the assay as part of CBC; made a molecule of its own for the contacts seen in the structure; also called NCBP2; source: E. coli BL21Star (DE3), pETM30; purified together with CBP80ΔNLS as CBC
binding result [4]: binds | binding result [5]: binds
